US20190201496A1 (published 2019)
Read-outs that look alike come from different tables or passages of the source.

Legend:
Experiment in all cases: SPR; pH 6
human β2-microglobulin [1] = target: T1, human β2-microglobulin (UniProt P61769 21-119)
mβ2m = target: mβ2m
HLA-A2:01 = target: T2, HLA-A2:01 (human, UniProt A*02:01, biotinylated (site not stated))
T2 chain: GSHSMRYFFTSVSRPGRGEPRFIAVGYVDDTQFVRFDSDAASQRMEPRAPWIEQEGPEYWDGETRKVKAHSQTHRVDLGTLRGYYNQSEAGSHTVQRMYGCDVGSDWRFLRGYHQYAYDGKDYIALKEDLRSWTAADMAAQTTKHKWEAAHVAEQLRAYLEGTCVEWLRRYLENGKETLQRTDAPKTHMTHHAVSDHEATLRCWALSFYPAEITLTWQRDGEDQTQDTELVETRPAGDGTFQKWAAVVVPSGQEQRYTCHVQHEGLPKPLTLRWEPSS

human β2-microglobulin [2] = target: T1, human β2-microglobulin; remark: listed apart in the source

T1 sequence (P61769 21-119): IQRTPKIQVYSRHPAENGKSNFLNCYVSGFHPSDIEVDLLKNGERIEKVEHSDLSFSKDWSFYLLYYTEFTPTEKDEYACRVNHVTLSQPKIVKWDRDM

B1: hAFP N-His (protein)
chain: RTLHRNEYGIASILDSYQCTAEISLADLATIFFAQFVQEATYKEVSKMVKDALTAIEKPTGDEQSSGCLENQLPAFLEELCHEKEILEKYGHSDCCSQSEEGRHNCFLAHKKPTPASIPLFQVPEPVTSCEAYEEDRETFMNKFIYEIARRHPFLYAPTILLWAARYDKIIPSCCKAENAVECFQTKAATVTKELRESSLLNQHACAVMKNFGTRTFQAITVTKLSQKFTKVNFTEIQKLVLDVAHVHEHCCRGDVLDCLQDGEKIMSYICSQQDTLSNKITECCKLTTLERGQCIIHAENDEKPEGLSPNLNRFLGDRDFNQFSSGEKNIFLASFVHEYSRRHPQLAVSVILRVAKGYQELLEKCFQTENPLECQDKGEEELQKYIQESQALAKRSCGLFQKLGEYYLQNAFLVAYTKKAPQLTSSELMAITRKMAATAATCCQLSEDKLLACGEGAADIIIGHLCIRHEMTPVNPGVGQCCTSSYANRRPCFSSLVVDETYVPPAFSDDKFIFHKDLCQAQGVALQTMKQEFLINLVKQKPQITEEQLEAVIADFSGLLEKCCQGQEQEVCFAEEGQKLISKTRAALGV
Question: Which Kd (human β2-microglobulin [1]) does the source give for B1 here?
Answer: Its Kd is 96.9 nM.

B2: hAFP cord (ligand)
chain: B1 chain
Question: B2 was tested. Which Kd (mβ2m) did it give?
Answer: Its Kd is 167 nM.

B3: human AFP derived from cord blood (ligand)
chain: B1 chain
Question: How did the Kd (human β2-microglobulin [1]) turn out when B3 was run?
Answer: Its Kd is 193 nM.

B4: AFP (ligand)
chain: B1 chain
Question: Which Kd (HLA-A2:01) does the source give for B4 here?
Answer: The Kd was 35.9 nM.

B5: human alpha-fetoprotein (AFP) (ligand)
chain: B1 chain
Question: Which Kd (human β2-microglobulin [2]) does the source give for B5 here?
Answer: The Kd was 125 nM.
